Positions count from the first letter of the chain named.
B1: wt 1E2 gene3-Fab fusion on phage (Fab, V domains shown)
VH: EVQLVESGGGLVQPGGSLRLSCTASGFTFSNYWMYWVRQAPGKGLEWVSAINAAGSTYYADSVKGRFTISRDNAKNTLYLQMNSLQSEDTALYYCANLPRWGQGTQVTVSS
VL: QTVVTQEPSLSVSPGGTVTLTCGLSSGSVTSGNYPGWYQQKPGQAPRTLIYNTNSRYSGVPNRFSGSISGNKAALTITGAQPEDEADYYCAVYIGSSSYPVVFGGGTHLTVLG
notes: crude phage extract; also called wt 1E2 (phage)
B2: hum 1E2 gene3-Fab fusion on phage (Fab, V domains shown)
VH: B1 VH with T23A, A74S, Q86R, S87A, L92V, Q106L
VL: B1 VL with L10F, K41T, Y57S, N62D, S69L, P82A, E83D, A86S, H108K
notes: also called fully humanized 1E2
B3: safe variant 1E2 gene3-Fab fusion on phage (Fab, V domains shown)
VH: B1 VH with T23A, A74S, L92V
VL: B1 VL with L10F, Y57S, N62D, S69L, E83D, A86S
notes: The text says 'partially humanized V lambda fused to human C lambda and CH1'; also called safe 1E2
B4: wt 1F2 gene3-Fab fusion on phage (Fab, V domains shown)
VH: EVQLVESGGGLVQPGGSLRLSCAASGFTFSTYAMSWVRQAPGKGPEWVSGINTGGGSTGYADSVKGRFTISRDNAKNTLYLQMNSLKPEDTAVYYCAKDWMATTPWGQGTQVTVSS
VL: QAVVTQEPSLSVSPGGTVTLTCGLSSGSVTTNNYPGWFQQTPGQAPRTLIYNTNNRHSGVPSRFSGSISGNKAALTITGAQPEDEADYYCALYMSSGSNNAVFGGGTHLTVLG
B5: hum 1F2 gene3-Fab fusion on phage (Fab, V domains shown)
VH: B4 VH with V5L, P45L, A75S, K87R, P88A, Q111L
VL: B4 VL with A2T, L10F, F38Y, H57S, S62D, S69L, P82A, E83D, A86S, H108K
notes: also called fully humanized 1F2
B6: safe variant 1F2 gene3-Fab fusion on phage (Fab, V domains shown)
VH: B4 VH with V5L, A75S, K87R
VL: B4 VL with A2T, L10F, S69L, P82A, E83D, A86S, H108K
notes: The text says 'partially humanized V lambda fused to human C lambda and CH1'; the result sentence speaks of back mutations in both VL and VH, so the safe VH is used; also called safe 1F2; partially humanized 1F2
B7: Fab 1A1 (Fab, part only; not given: lambda light chain, V domains shown, not shown: a dimerising Fc or GST)
VH: EVQLVESGGGLVQPGGSLRLSCAASGFTFDDYAMSWVRQAPGKGLEWVSTISWNGGATYYAESMKGRFTISRDNAKNTLYLQMNSLKSEDTAVYYCAKPYYSDYVGVEYDYWGQGTQVTVSS
B8: Fab 1C3 (Fab, part only; not given: lambda light chain, V domains shown, not shown: a dimerising Fc or GST)
VH: EVQLVESGGGLVQPGGSLRLSCAASGFTFSSYWMYWVRQAPGKGLEWVSAINTGGGRTYYADSVKGRFTISRDNAKNTLYLQMNSLKSEDTAVYYCAKGTSADGSSWYVPADPYDYWGQGTQVTVSS
B9: Fab 1B3 (Fab, part only; not given: lambda light chain, V domains shown, not shown: a dimerising Fc or GST)
VH: EVQLVQSGAELRNPGASVKVSCKASGYTFTSYYIDWVRQAPGQGLEWMGRIDPEDGGTKYAQKFQGRVTFTADTSTSTAYVELSSLRSEDTAVYYCARSGRYELDYWGQGTQVTVSS
B10: Fab 1G1 (Fab, part only; not given: light chain, V domains shown, part only)
VH: B9 VH with I34T, G57D, S84T, A97L, R101A

Assays:
neutravidin = target: T1, neutravidin (UniProt P02701 25-152); experiment: phage ELISA, crude phage extract, anti-M13-HRP
T1 construct: Control wells without biotinylated IL-1 Beta
T1 sequence (P02701 25-152): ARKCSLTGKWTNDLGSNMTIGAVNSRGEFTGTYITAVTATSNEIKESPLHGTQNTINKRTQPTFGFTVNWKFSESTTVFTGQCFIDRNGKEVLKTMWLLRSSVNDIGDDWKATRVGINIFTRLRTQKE

human IL-1 Beta (human) [1] = target: human IL-1 Beta (human) (UniProt P01584); experiment: cell-based or functional assay
Sequence of human IL-1 Beta (human) (P01584 117-269 limits assumed): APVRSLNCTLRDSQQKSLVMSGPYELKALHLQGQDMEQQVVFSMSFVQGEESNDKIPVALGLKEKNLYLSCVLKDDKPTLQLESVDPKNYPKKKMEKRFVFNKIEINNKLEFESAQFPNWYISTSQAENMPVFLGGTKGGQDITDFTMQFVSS

human IL-1 Beta (human) [2] = target: human IL-1 Beta (human) (UniProt P01584); experiment: ELISA based competition assay; competitor: antagonistic reference mouse mAb (Diaclone)
human IL-1 Beta (human) [3] = target: human IL-1 Beta (human) (UniProt P01584); experiment: competition ELISA, periplasmic extract; competitor: coated mouse mAb (Diaclone); reduced signal means competition

Binder | binding result (neutravidin) | OD signal in the competition assay (human IL-1 Beta (human) [3]) | also measured
B1 | no binding | – | –
B2 | no binding | – | –
B3 | no binding | – | –
B4 | no binding | – | –
B5 | no binding | – | –
B6 | no binding | – | –
B7 | – | 0.205 OD | IC50 in the bioassay (human IL-1 Beta (human) [1]): 10 µg/mL; IC50 (human IL-1 Beta (human) [2]): 12 µg/mL
B8 | – | 0.386 OD | IC50 in the bioassay (human IL-1 Beta (human) [1]): 3 µg/mL; concentration at which competition is seen (human IL-1 Beta (human) [2]): > 50 µg/mL
B9 | – | 0.444 OD | –
B10 | – | 0.498 OD | –

Reference: EP3061768A1 (dated 2016)
